PMC4956616, “Structural Insights into Arl1-Mediated Targeting of the Arf-GEF BIG1 to the trans-Golgi” (Cell Reports, 2016)

T1: His6-DCB^BIG1 (human BIG1 residues 1–228) (human, UniProt Q9Y6D6 1-228)
T1 construct: also called DCB domain; source: E. coli BL21-CodonPlus (DE3)-RIPL, purified (Ni-NTA); not shown: His6, N-terminal, kept
T1 sequence (looked up): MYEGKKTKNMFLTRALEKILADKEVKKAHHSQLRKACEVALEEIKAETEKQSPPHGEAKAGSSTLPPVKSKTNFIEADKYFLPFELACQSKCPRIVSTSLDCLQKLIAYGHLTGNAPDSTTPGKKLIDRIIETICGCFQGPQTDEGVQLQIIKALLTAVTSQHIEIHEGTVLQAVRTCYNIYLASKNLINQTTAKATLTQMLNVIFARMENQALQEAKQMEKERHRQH

T2: His6-tagged BIG2 N-terminal fragment (1–216) (human, UniProt Q9Y6D5 1-216)
T2 construct: human BIG2, UniProt Q9Y6D5, N-terminal fragment, residues 1-216; also called related region from BIG2; source: E. coli BL21-CodonPlus (DE3)-RIPL, purified (Ni-NTA); not shown: His6, N-terminal, kept
T2 sequence (looked up): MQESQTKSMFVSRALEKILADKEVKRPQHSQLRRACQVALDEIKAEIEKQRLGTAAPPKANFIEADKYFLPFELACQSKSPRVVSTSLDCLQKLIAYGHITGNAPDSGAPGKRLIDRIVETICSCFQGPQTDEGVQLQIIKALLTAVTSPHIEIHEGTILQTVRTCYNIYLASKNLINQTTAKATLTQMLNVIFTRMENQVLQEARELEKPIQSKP

B1: GST-Arl1^ΔN14 (human Arl1 residues 15–181), loaded with GMP-PNP or GDP (domain or fragment, UniProt P40616 15-181, looked up)
chain: TREMRILILGLDGAGKTTILYRLQVGEVVTTIPTIGFNVETVTYKNLKFQVWDLGGQTSIRPYWRCYYSNTDAVIYVVDSCDRDRIGISKSELVAMLEEEELRKAILVVFANKQDMEQAMTSSEMANSLGLPALKDRKWQIFKTSATKGTGLDEAMEWLVETLKSRQ
notes: human Arl1, UniProt P40616, residues 15-181 (lacks the N-terminal amphipathic helix, residues 1-14); it was loaded with nucleotide (GMP-PNP or GDP) in vitro; also called Arl1^GTP; GST-Arl1^GMP-PNP; source: E. coli BL21-CodonPlus (DE3)-RIPL, purified (glutathione-Sepharose); not shown: GST, N-terminal, kept
B2: His6-DCB^Δ51–71 (human BIG1 residues 1–228 with a deletion of residues 51–71 inclusive) (domain or fragment, UniProt Q9Y6D6 1-228, looked up)
chain: MYEGKKTKNMFLTRALEKILADKEVKKAHHSQLRKACEVALEEIKAETEKTNFIEADKYFLPFELACQSKCPRIVSTSLDCLQKLIAYGHLTGNAPDSTTPGKKLIDRIIETICGCFQGPQTDEGVQLQIIKALLTAVTSQHIEIHEGTVLQAVRTCYNIYLASKNLINQTTAKATLTQMLNVIFARMENQALQEAKQMEKERHRQH
notes: also called DCB^((Δ51–71) BIG1); source: E. coli BL21-(DE3)-RIPL, co-expressed with GST-Arl1^Q71L, purified (glutathione-Sepharose, TEV release, Superdex 75)
B3: MBP-tagged DCB^BIG1 (wild type) (domain or fragment, human, UniProt Q9Y6D6 1-228, looked up)
chain: T1 sequence (looked up)
notes: Expected monomer 69 kDa, measured average 129 kDa; also called MBP-DCB^BIG1; not shown: MBP, N-terminal, kept

What was measured:
[1] = molecular target: T1, His6-DCB^BIG1 (human BIG1 residues …); assay: pull-down; 2 nM GST-Arl1 loaded with GMP-PNP or GDP mixed with 2 nM His6-tagged protein in 500 μl buffer C (20 mM Tris-HCl, 110 mM KCl, 1 mM DTT, 0.1% Triton X-100) plus 5 mM MgCl2, 4°C 30 min, captured on glutathione-Sepharose; SDS-PAGE, Coomassie; details: both partners purified
[2] = molecular target: T2, His6-tagged BIG2 N-terminal fragment …; assay: as above; details: both partners purified
[3] = molecular target: B2; assay: as above; details: both partners purified
[4] = molecular target: the molecule itself; assay: crystal structure; Arl1^Q71L-GTP/Mg2+/DCB^Δ51–71, space group C2, one complex per asymmetric unit, 2.3 Å, molecular replacement
[5] = molecular target: the molecule itself; assay: SEC-MALS; MBP-tagged DCB^BIG1 proteins on Superdex-75 HR10/300, 0.5 ml/min, PBS pH 7.5, 150 mM NaCl, 5 mM MgCl2, 0.001% Triton X-100; dimer to monomers

## B1
[1]
  binding result: binds
[2]
  binding result: binds
[3]
  binding result: binds

## B2
[4]
  binding result: binds

## B3
[5]
  stoichiometry N: 2
